In the supplement of paper PMC10567573:

B1: DVL3 (parent)
chain: YNPHPGFPELGYSYGGGSASSQHS
B2: POMT2 (parent)
chain: YHEAPMTRKHYQVTGYGINGTGDS

Variants of: B1
Test: protein stability index of a GFP-peptide fusion (GPS, HEK-293T) (PSI 1-6); higher = more stable
Conditions: c terminus: a fixed tail appended
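Note: lentivirally expressed fusions sorted by FACS into six bins by GFP to DsRed ratio, PSI derived from sequencing read proportions per bin multiplied by bin number.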

Variant | protein stability index
YNPHPFFPELGYSYGGGSASSQHS | 2.42
YNPHPEFPELGYSYGGGSASSQHS | 3.84
YNPHPDFPELGYSYGGGSASSQHS | 3.14
YNPHPKFPELGYSYGGGSASSQHS | 3.05
YNPHPHFPELGYSYGGGSASSQHS | 2.67
YNPHPAFPELGYSYGGGSASSQHS | 2.78
YNPHPIFPELGYSYGGGSASSQHS | 2.38
YNPHPCFPELGYSYGGGSASSQHS | 2.53
MNPHPGFPELGYSYGGGSASSQHS | 3.37
FNPHPGFPELGYSYGGGSASSQHS | 2.16
WNPHPGFPELGYSYGGGSASSQHS | 3.49
ANPHPGFPELGYSYGGGSASSQHS | 4.36
GNPHPGFPELGYSYGGGSASSQHS | 4.47
DNPHPGFPELGYSYGGGSASSQHS | 4.18
SNPHPGFPELGYSYGGGSASSQHS | 3.75
PNPHPGFPELGYSYGGGSASSQHS | 4.24
KNPHPGFPELGYSYGGGSASSQHS | 3.94
NNPHPGFPELGYSYGGGSASSQHS | 4.11
INPHPGFPELGYSYGGGSASSQHS | 3
QNPHPGFPELGYSYGGGSASSQHS | 4.53
RNPHPGFPELGYSYGGGSASSQHS | 3.52
LNPHPGFPELGYSYGGGSASSQHS | 3.88
ENPHPGFPELGYSYGGGSASSQHS | 4.73
TNPHPGFPELGYSYGGGSASSQHS | 4.25
HNPHPGFPELGYSYGGGSASSQHS | 3.39
CNPHPGFPELGYSYGGGSASSQHS | 2.33

Variant | protein stability index
VNPHPGFPELGYSYGGGSASSQHS | 3.12
YNPHRGFPELGYSYGGGSASSQHS | 2.37
YNPHGGFPELGYSYGGGSASSQHS | 2.32
YNPHYGFPELGYSYGGGSASSQHS | 2.35
YNPHAGFPELGYSYGGGSASSQHS | 2.58
YNPHMGFPELGYSYGGGSASSQHS | 2.31
YNPHCGFPELGYSYGGGSASSQHS | 2.22
YNPHTGFPELGYSYGGGSASSQHS | 2.36
YNPHSGFPELGYSYGGGSASSQHS | 2.64
YNPHKGFPELGYSYGGGSASSQHS | 2.31
YNPHFGFPELGYSYGGGSASSQHS | 2.44
YNPHDGFPELGYSYGGGSASSQHS | 3.67
YNPHIGFPELGYSYGGGSASSQHS | 2.4
YNPHNGFPELGYSYGGGSASSQHS | 2.75
YNPHEGFPELGYSYGGGSASSQHS | 3.27
YNPHHGFPELGYSYGGGSASSQHS | 2.36
YNPHVGFPELGYSYGGGSASSQHS | 2.41
YNPHWGFPELGYSYGGGSASSQHS | 2.2
YNPHQGFPELGYSYGGGSASSQHS | 3.26
YNPHLGFPELGYSYGGGSASSQHS | 2.59
YNQHPGFPELGYSYGGGSASSQHS | 3.05
YNSHPGFPELGYSYGGGSASSQHS | 2.67
YNKHPGFPELGYSYGGGSASSQHS | 3.43
YNFHPGFPELGYSYGGGSASSQHS | 2.7
YNWHPGFPELGYSYGGGSASSQHS | 2.51
YNAHPGFPELGYSYGGGSASSQHS | 3.07

Variant | protein stability index
YNLHPGFPELGYSYGGGSASSQHS | 3.46
YNIHPGFPELGYSYGGGSASSQHS | 2.86
YNRHPGFPELGYSYGGGSASSQHS | 3.17
YNYHPGFPELGYSYGGGSASSQHS | 3.18
YNEHPGFPELGYSYGGGSASSQHS | 2.75
YNHHPGFPELGYSYGGGSASSQHS | 2.95
YNNHPGFPELGYSYGGGSASSQHS | 2.79
YNGHPGFPELGYSYGGGSASSQHS | 2.19
YNTHPGFPELGYSYGGGSASSQHS | 3.08
YNDHPGFPELGYSYGGGSASSQHS | 2.81
YNCHPGFPELGYSYGGGSASSQHS | 3.32
YNVHPGFPELGYSYGGGSASSQHS | 3.08
YNMHPGFPELGYSYGGGSASSQHS | 3.01
YGPHPGFPELGYSYGGGSASSQHS | 3.06
YPPHPGFPELGYSYGGGSASSQHS | 1.97
YVPHPGFPELGYSYGGGSASSQHS | 1.82
YFPHPGFPELGYSYGGGSASSQHS | 2.32
YIPHPGFPELGYSYGGGSASSQHS | 2.37
YLPHPGFPELGYSYGGGSASSQHS | 2.16
YHPHPGFPELGYSYGGGSASSQHS | 3.33
YMPHPGFPELGYSYGGGSASSQHS | 2.55
YAPHPGFPELGYSYGGGSASSQHS | 1.96
YCPHPGFPELGYSYGGGSASSQHS | 2.12
YQPHPGFPELGYSYGGGSASSQHS | 2.33
YYPHPGFPELGYSYGGGSASSQHS | 2.87
YTPHPGFPELGYSYGGGSASSQHS | 2.23

Variant | protein stability index
YSPHPGFPELGYSYGGGSASSQHS | 2.72
YEPHPGFPELGYSYGGGSASSQHS | 3.75
YWPHPGFPELGYSYGGGSASSQHS | 2.48
YKPHPGFPELGYSYGGGSASSQHS | 3.28
YRPHPGFPELGYSYGGGSASSQHS | 3.09
YDPHPGFPELGYSYGGGSASSQHS | 3.64
YNPQPGFPELGYSYGGGSASSQHS | 2.56
YNPDPGFPELGYSYGGGSASSQHS | 3.9
YNPAPGFPELGYSYGGGSASSQHS | 2.06
YNPCPGFPELGYSYGGGSASSQHS | 2.58
YNPGPGFPELGYSYGGGSASSQHS | 2.01
YNPEPGFPELGYSYGGGSASSQHS | 2.7
YNPKPGFPELGYSYGGGSASSQHS | 3.61
YNPYPGFPELGYSYGGGSASSQHS | 2.35
YNPWPGFPELGYSYGGGSASSQHS | 2.44
YNPRPGFPELGYSYGGGSASSQHS | 2.8
YNPPPGFPELGYSYGGGSASSQHS | 2.29
YNPMPGFPELGYSYGGGSASSQHS | 2.69
YNPLPGFPELGYSYGGGSASSQHS | 2.77
YNPIPGFPELGYSYGGGSASSQHS | 2.51
YNPSPGFPELGYSYGGGSASSQHS | 2.1
YNPTPGFPELGYSYGGGSASSQHS | 2.34
YNPNPGFPELGYSYGGGSASSQHS | 2.73
YNPFPGFPELGYSYGGGSASSQHS | 2.16
YNPVPGFPELGYSYGGGSASSQHS | 2.75

Variants of: B2
Test: as above
Conditions: c terminus: a fixed tail appended

Variant | protein stability index
YHEAPMTRKHYQVTGYGINGDGDS | 2.46
YHEAPMTRKHYQVTGYGINGFGDS | 2.11
YHEAPMTRKHYQVTGYGINGMGDS | 2.01
YHEAPMTRKHYQVTGYGINGGGDS | 1.83
YHEAPMTRKHYQVTGYGINGHGDS | 2.23
YHEAPMTRKHYQVTGYGINGPGDS | 2.25
YHEAPMTRKHYQVTGYGINGRGDS | 2.6
YHEAPMTRKHYQVTGYGINGEGDS | 2.04
YHEAPMTRKHYQVTGYGINGSGDS | 2.19
YHEAPMTRKHYQVTGYGINGVGDS | 1.37
YHEAPMTRKHYQVTGYGINGYGDS | 1.76
YHEAPMTRKHYQVTGYGINGQGDS | 2.12
YHEAPMTRKHYQVTGYGINGCGDS | 2.4
YHEAPMTRKHYQVTGYGINGKGDS | 2.3
YHEAPMTRKHYQVTGYGINGNGDS | 2.58
YHEAPMTRKHYQVTGYGINGLGDS | 2.1
YHEAPMTRKHYQVTGYGINGWGDS | 2.15
YHEAPMTRKHYQVTGYGINGIGDS | 1.37
YHEAPMTRKHYQVTGYGINGAGDS | 2.56
YHEAPMTRKHYQVTGYGINGTGHS | 2.03
YHEAPMTRKHYQVTGYGINGTGKS | 1.99
YHEAPMTRKHYQVTGYGINGTGAS | 2.02

Variant | protein stability index
YHEAPMTRKHYQVTGYGINGTGVS | 2.42
YHEAPMTRKHYQVTGYGINGTGFS | 1.63
YHEAPMTRKHYQVTGYGINGTGWS | 1.24
YHEAPMTRKHYQVTGYGINGTGQS | 2.44
YHEAPMTRKHYQVTGYGINGTGES | 2.11
YHEAPMTRKHYQVTGYGINGTGLS | 1.95
YHEAPMTRKHYQVTGYGINGTGNS | 2.17
YHEAPMTRKHYQVTGYGINGTGPS | 2.02
YHEAPMTRKHYQVTGYGINGTGYS | 1.67
YHEAPMTRKHYQVTGYGINGTGIS | 2.18
YHEAPMTRKHYQVTGYGINGTGSS | 2.14
YHEAPMTRKHYQVTGYGINGTGRS | 1.25
YHEAPMTRKHYQVTGYGINGTGGS | 2.88
YHEAPMTRKHYQVTGYGINGTGTS | 1.85
YHEAPMTRKHYQVTGYGINGTGCS | 2.22
YHEAPMTRKHYQVTGYGINGTGMS | 1.66
YHEAPMTRKHYQVTGYGINGTSDS | 2.36
YHEAPMTRKHYQVTGYGINGTVDS | 2.25
YHEAPMTRKHYQVTGYGINGTPDS | 3.15
YHEAPMTRKHYQVTGYGINGTWDS | 1.7
YHEAPMTRKHYQVTGYGINGTNDS | 2.18
YHEAPMTRKHYQVTGYGINGTMDS | 2.04

Variant | protein stability index
YHEAPMTRKHYQVTGYGINGTFDS | 2.3
YHEAPMTRKHYQVTGYGINGTKDS | 2.29
YHEAPMTRKHYQVTGYGINGTADS | 2.26
YHEAPMTRKHYQVTGYGINGTLDS | 2.28
YHEAPMTRKHYQVTGYGINGTIDS | 1.68
YHEAPMTRKHYQVTGYGINGTHDS | 2.44
YHEAPMTRKHYQVTGYGINGTDDS | 2.17
YHEAPMTRKHYQVTGYGINGTTDS | 1.95
YHEAPMTRKHYQVTGYGINGTQDS | 2.28
YHEAPMTRKHYQVTGYGINGTCDS | 1.91
YHEAPMTRKHYQVTGYGINGTRDS | 1.92
YHEAPMTRKHYQVTGYGINGTYDS | 2.15
YHEAPMTRKHYQVTGYGINGTEDS | 2.35
YHEAPMTRKHYQVTGYGINGTGDW | 1.49
YHEAPMTRKHYQVTGYGINGTGDE | 2.29
YHEAPMTRKHYQVTGYGINGTGDA | 2.15
YHEAPMTRKHYQVTGYGINGTGDQ | 1.68
YHEAPMTRKHYQVTGYGINGTGDM | 1.79
YHEAPMTRKHYQVTGYGINGTGDK | 2.57
YHEAPMTRKHYQVTGYGINGTGDG | 2.57
YHEAPMTRKHYQVTGYGINGTGDT | 1.98
YHEAPMTRKHYQVTGYGINGTGDL | 1.64

Variant | protein stability index
YHEAPMTRKHYQVTGYGINGTGDV | 2.44
YHEAPMTRKHYQVTGYGINGTGDH | 1.99
YHEAPMTRKHYQVTGYGINGTGDI | 2.16
YHEAPMTRKHYQVTGYGINGTGDN | 2.11
YHEAPMTRKHYQVTGYGINGTGDD | 2.41
YHEAPMTRKHYQVTGYGINGTGDY | 2.1
YHEAPMTRKHYQVTGYGINGTGDP | 2.23
YHEAPMTRKHYQVTGYGINGTGDR | 2.17
YHEAPMTRKHYQVTGYGINGTGDF | 1.76
YHEAPMTRKHYQVTGYGINGTGDC | 1.81
YHEAPMTRKHYQVTGYGINTTGDS | 2.43
YHEAPMTRKHYQVTGYGINRTGDS | 2.16
YHEAPMTRKHYQVTGYGINNTGDS | 2.47
YHEAPMTRKHYQVTGYGINPTGDS | 2.24
YHEAPMTRKHYQVTGYGINSTGDS | 2.36
YHEAPMTRKHYQVTGYGINQTGDS | 2.43
YHEAPMTRKHYQVTGYGINVTGDS | 1.98
YHEAPMTRKHYQVTGYGINYTGDS | 2.39
YHEAPMTRKHYQVTGYGINWTGDS | 2.12
